The values below come from the NTF2 design screens of Basanta et al. (2020).

The nature of the data set: protease stability score; higher = more stable; yeast display proteolysis, trypsin and chymotrypsin.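 Also: log10 excess protease needed over predicted unfolded state with 0 meaning unfolded.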
Regarding “DEEEAKKFMETWQKAVEKGDTKTARELYDPNVEWIDYSQRHQGVEMVVKQMQQVKKKGVEFQIRKAKVEGNEVEVVYDANIGNETATFTVQFRAEGGRVKEVRVKMDEKAKKIKREG”, the protease stability score was determined as 0.064.

In turn, “DEEEAKKIVETVVKAVENGDVEKLKQMIKEGGKYKVINRERHGPEAVEEVIRLLQKAGVEMEFKEVRVEGNTATTRVEYRHGDKEAEVKVTATMQGGRIDEVRFKMSEEAQKMVEHG” yielded a protease stability score of 1.08.

The sequence “DEEEAKKNVKVWEQNDPDTFNKLVDKDAKAVIGDKEVHGRSEINRIIKRLLQQADHWQVDEVHIHNGRVHISYQFVINGQRLDVRVTIELRNGRIKDVKVHFTDDEQKKRANENVR” yielded a protease stability score of 0.943.

With “DEEEAKKVLDKAVKAVKNGDLKHLKDLGKDGVEYRIADKKAHGPEQIEKVMEYLHRKGVRIEFKRQEVKGNTVTTDIEYQQGDETYTVQAHATVKGGRIDKVEIDVSERAKKVMDHG”, the protease stability score was found to be 0.149.

Consider “DEEEAKKVMEKWMKVVQKGDKDKVKKLYPPNVNWLNINTQKQGVEVVVKMMKQVQDKGAQFQVRRAEVKGDEAEMQYDLRIGDKTATFTVRIRAKGGQVEMVEVKVTEEAKKIVDTG”, for which the protease stability score is 0.111.

Sequence “DEEEAKKVVDQAVKYFQNGDAEKLRDLGKEGVKYRVADVEAHGPEVVLKAVERLKRQGVKIQYRKVEVKGDTVTTQLDYQQGDRTFTVTIEAEVKGGKIDRVEADANEDAKKIVKHG” yielded a protease stability score of 0.172.

For the sequence “DEEEAKKVVETAVKYLQKGNVKQLKDIGHEGVDYQVADNKKKGPDAIEDVLRYLEKLGVRMEVKKQEVKGDTAHTVVDYQQGDTKVRATVEADIQGGRIDRVQVNVPETLKKILKHG”, the protease stability score is -0.284.

With “DEEEAKRQMEEFAHGDPDKMVNNVDENADAVVGDRRFHGRKDIKEWAERMKKRIDTNKYEHVEQQGDKVDAIYNITVNGQELRFKLVIKIDNGRVEYVKVDVTDEENLKILQEIFS”, the protease stability score stood at 0.121.

As to “DEEEAQDVLQEVFKAVSRGDEDRAEQLADPNAKAEYGDKSYHGKKVIKEAVRRMSEQADHFEFKHIDHDEGRVVFDMEIEFNGQTFKVKVKAQAHNGRAQNFKFQFRSEDDLERLQS”, the protease stability score was -0.23.

With “DEEEAQKFRKHAKSNDQDNMRRMMDEDVRVIVGDFEVQGREDAEENLLRLNQRVDHISVKSIDVQGEHVTVDVEMTIDGTKFVVVYVVQFHNGRIKQLDLRARDEKDEKAFRRAVG”, the protease stability score is 0.234.

Consider “DEEEASTIAKVFRTNNWEELVRLADENAKVKVGDKEVHGRHVVDEMVKLISDAADTIKYDSYTVQGEKIEMVVKLVINGQKVEFKLTARAHNGRIKEIVLSVRDEDQKRKFEKEDG”, for which the protease stability score is 0.783.

The sequence “DEEEDAEKLLERREKVFRQGDPDQMQRMMDPNARIKVGDREVHGREEVDRTLLEQARKADHIRFELKDMRVQGDKVVLDVHVKFEVNGRHQSRQVQYVAQFHNGRYTFRSARER” gave a protease stability score of 0.047.

With “DEEEDEKFVEFLKNVERGNEDKLRELVPPDAKNQVGDTVVEGRDEWLKKLTSELKKSRVTYNVKSVSASNGRMSLVVDVTVDENGRPQKRDLRIDATVHNGKWQKVHLKFDS”, the protease stability score was 0.342.

On to “DEEEDKKMLDNINTIWERGNPDEIEKLIDPNARVQVGDKTLHGREQIKHFLKRLHERIDHFEYQSVSAHNGRMRARVRFRVNGVHVRMEIDATYNNGKVKKMEVRVTDEKHLERARK”, for which the protease stability score came to 0.741.

Consider “DEEEDKKVKHLITNIREGNSDDFIKMMDPNARLVYGDQRVKGTSQAREFVHSLHEQARIDLEVKHITAHNGRIDVTVKMELEVNGQPYRFSVNVIVHIRNGKVQEVVFQFDPRDEQRNRK”, for which the protease stability score came out at 1.24.

With “DEEEDNELAKRAAKAMSTNDEDQVENLVDKDVRLEVGDKTYTGDEQVRSAIQEFRRRADHVKVNKLKVEDGQANLRFTVNWNGVELDMVIHVKATNGKIKTVTIKVRDPEQERRFKS”, the protease stability score came to 0.024.

With “DEEEDQRVAVDALKVIWRGDSDEAQKLFDPNARFRVGDTVYHGRENVKTALRRFRERADHIRVDHIETQGEHAVAKATVHSNGRTRRLRVHATVHNGRAKEAEVRDS”, the protease stability score was 0.012.

As for “DEEEEARKFVKTAQDKARQGNEDQLQNMADKDARVEVGDKVIHGRNEAVKTRREENKRYDRVHNDVQHITLRPGQITIRMRVHVEHNGQRRHREFVFVMHNNNGEWHVEFVEVK”, the protease stability score was -0.045.

With “DEEEEHKFEDQVRTNDPDKQRKQLDKDVHVEYGDRTYHGRDAVDKWYKKMKKQVDHVHYHDIRIRNGHATLQNEANVNGRNVRMHVDIEVHNGRLKRMTINFRDEEDTKLFDRLVR”, the protease stability score came to 0.048.

“DEEEEKQLEDIWKENDWQKWANDADPNVRVNIGDETLHGREDLQRWAQLVRKRYDHVKIESVRFHNGRADVEVNVVVDGEQFRYKLTIQLHNGRVKHMKIQATDEQVKTLLDQMRS” showed a protease stability score of 1.59.

Consider “DEEEEKRMTKILEHNDFHKLADNADPNVQINIGDKHIHGRDQAQTFFKQMQKAADHWSIRTMNVRNGHIVVDLVMNVNGQNIRFNLRIERRNGHIKSASVQFTDPDQKRQFDENRS”, for which the protease stability score was 0.599.

In turn, “DEEEELRRAVKAIKQYMTGNEQEVSKMADPNVKIQVGEKRIHGREQLRQEVKRLHDTVDHIEVLSITHTGNSAQVDARVEVDGRVQRFVLRVVMHNGRITSIVVEVTDEDRFKNMVK” showed a protease stability score of 1.2.

In the case of “DEEEFKKHAEQVIRILEHGDPDQMKKNADPNAKIEVGDRTYHGHDRMREFVKRLRDRVDHMSVETWSAHNGRIHIHFRVDINGKDVRVVMQLTVDNGKIKRLRVKSG”, the protease stability score was found to be 0.914.

“DEEEHAKEFVKRLDKVNKKNDEESFEDLADENATFRYGDKTYRGREDMRKLVQDLRKRADHADVKLTRLELHNGQVRAEIDMRFRHDGRTHKDVFDAQLKVTNGTVKLTNLNQS”: the protease stability score is -0.059.

The sequence “DEEEHAKQFLDKMHRAFENNNKDEVRKLADENARFEYGDKTYHGDEEFAKWMREIRERVDRVEMDLRSIEREGEKLNIRFEVKYKHNGNSDTQRWVFVIKHHNGDYVIEKLREQ” showed a protease stability score of 1.22.

For the sequence “DEEEHFRKWVHEFIKILETGDPDQAKKMMDPNVRETVGDKSLHGHDQMVREIEKRRESIDHVNFDIKDYRIQGNHFVLDLKVNEVHNGKEITRRLEVDASTQGDKLYVNEIRLS”, the protease stability score is -0.146.

Take “DEEEIATENAQRFINAVNKNNPDEFVKNMDEDVRIEYGDKVVHGRSQAKHLANEMVDKVDHLTARITDFKVHNGEVDVNVRITFRHNGRNDTHHVRLHLQVHNGRLHIQSMKWS”: the protease stability score is -0.412.

In turn, “DEEEIEDVARKLNTGNKDDMRELADKDVKAQVGDKEVHGRENLVRIMKRLKDQADHIKVDEVHVQGNRIQVRFQMNINGTTFDVSFVAKVSNGHIKYFSLRARDPRLDEKILRILK” came in with a protease stability score of 0.493.

The sequence “DEEEIHTMLEVLKQNDEQTLQDLFDENAKISVGEFRFHGRDEAIEFAREFNKAVDHVHYKRVDVQGNRARVKMQLNVNGKNIDVVVKVEIHNGRIKSLRIDVRDEQLRRDLEEAFR” gave a protease stability score of 1.71.

“DEEEIRHINRKLLKALQEGNEHEVAKLADKDASFDIGDKTYNGRHQVRNMIRKIRSQVDHMTVERMSISNGRIFVFIVFEINGRTRRTNQVVEVKNGRIKEVHVKET” came in with a protease stability score of 0.145.

Consider “DEEEIRMILDVIRARESGDEDRLHELLDKDVEFQVGEKTYHGREEIVRQVLQERREMQYSVNVKTVRDHNGVADIKAEFHFLYNGRPMNIDVEIHAHAHNGSVVNFRVRVDPKQMDDFKT”, for which the protease stability score was 1.26.

“DEEEKAEHVADEVRHALKRGDEDRLMNLMDENVRVEVGDKTIHGREEVRKELHRISKDFDHVDAKVKSIKVTNGNVIIIMDVKQNVNGRTRRFEVSMILDVKGDKARIQHIKND” registered a protease stability score of 1.11.

For the sequence “DEEEKAREQQEEFQKALEKNDKEKIKNYFDPNVRVHVGDKTLHGREDVAERLIQLAQHVDHIQVEIKKLDVRNGRIDVDVVVVFERNGQRSTQRFKITMKINNGRAYVQHMKQS”, the protease stability score is 0.109.
